System: MS2 coat protein
Assay: apparent KD of MS2 coat protein; designed switch direction (-1 OFF switch, 1 ON switch): -1; higher = weaker reporter binding
Procedure, shortened: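 An oligonucleotide input, 200 uM small-molecule ligand, or no input was present during titration of SNAP-549-labelled MS2 coat protein, which was doubled from 0.7 or 1.5 nM to 3 µM. Designed RNA switches had been transcribed on Illumina chips by stalled E. coli RNA polymerase. Apparent KD per design is the median over clusters of curves fitted to normalised cluster fluorescence.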

[1] = input ligand: microRNA oligo, concentration not stated
[2] = Eterna round: R95, input ligand: FMN 200 uM
[3] = Eterna round: R95, input ligand: microRNA oligo, concentration not stated
[4] = Eterna round: R95, input ligand: none

| Sequence | apparent KD of MS2 coat protein (input ligand: FMN 200 uM) | apparent KD of MS2 coat protein [1] | apparent KD of MS2 coat protein (input ligand: none) | apparent KD of MS2 coat protein [2] | apparent KD of MS2 coat protein [3] | apparent KD of MS2 coat protein [4] |
| --- | --- | --- | --- | --- | --- | --- |
| ACAUGUCAUUGAGGAUAUUGCAAACAUGAGGAUCACCCAUGUAAACGGAUGCUCUUACGUGGGUUCGAGAAGGCGAUGUACAUU [Ex NG2 #93] (Eterna round: R96, puzzle: Exclusion NG 2) | 930 nM | 39.8 nM | 242 nM | – | – | – |
| ACAUGUUAUCCAUGAUAUCACAUGAGGAUCACCCAUGUUAUGGCGAUUUUGAGGUGUAAGUUUUGUGCUCGUCUUAU [JR_STOV1_Sub057] (Eterna round: R97, puzzle: Sensor, turn-off variant 1) | 80.1 nM | – | 89.4 nM | – | – | – |
| ACAUGUUAUCCAUGAUAUCACAUGAGGAUCACCCAUGUUAUGGCGAUUUUGAGGUGUAAGUUUUUUGCUCGUCUUAU [JR_STOV1_Sub058] (Eterna round: R97, puzzle: Sensor, turn-off variant 1) | 51.5 nM | – | 61.1 nM | – | – | – |
| ACAUGUUAUCCAUGAUAUUACAUGAGGAUCACCCAUGUUAUGGCGAUUUUGAUGUGUAAGUUUGUUGCUCGUCUUAU [JR_STOV1_Sub060] (Eterna round: R97, puzzle: Sensor, turn-off variant 1) | 40.9 nM | – | 48.1 nM | – | – | – |
| ACAUGUUGUCCAUGAUAUUACAUGAGGAUCACCCAUGUUAUUGUGAUUUUGAUGUGUAAGUUUGUUGCUCGUCUUAU [JR_STOV1_Sub063] (Eterna round: R97, puzzle: Sensor, turn-off variant 1) | 29.8 nM | – | 29.4 nM | – | – | – |
| ACCAUAGAUGUAGGAUAUCCAUGAAGAUAACAAGGAGAAGGACAUGAGGAUCACCCAUGUAAGUAUUAUGAAUGUAGCGACAGC [Meechl Ex NG1] (Eterna round: R96, puzzle: Exclusion NG 1) | 82.1 nM | 34 nM | 59.5 nM | – | – | – |
| ACCAUGGUUGAAGCUAACAUGAGGAUCACCCAUGUAAGCUGCUAGGAUAUGCAGAGGCCCAGAAAGCAGAAGGAGCAGUACUGC [Diatzagequ] (Eterna round: R96, puzzle: Exclusion NG 3) | 14.2 nM | 10.6 nM | 14.9 nM | – | – | – |
| ACCAUUUACUAAUCCUCUAUACAUGAGGAUCACCCAUGUUCUGAGGAUAUCAUCGUUCGCCGCGUUGAGAAGGCAGAGCAUUCG [Ariestion] (Eterna round: R96, puzzle: Exclusion NG 3) | 157 nM | 22.4 nM | 24.8 nM | – | – | – |
| ACCUCACAUGAGGAUCACCCAUGUCAGGAUAUCUAUUAUUGCAGCAUUCCUGUCGCUGAGAGAAGGGACAUUAA [EX1 #28] (Eterna round: R97, puzzle: Exclusion 1) | 29.4 nM | – | 23.7 nM | – | – | – |
| ACGAUGACCGAAAAGUGUUAACUGACAUGAGGAUCACCCAUGUAGGAUAUGGCUACGAAAAGUAGUCAGAAGGGCAUGUCAUCA [Omei Exc(NG) 3 Av8] (Eterna round: R96, puzzle: Exclusion NG 3) | 27 nM | 18.7 nM | 27.3 nM | – | – | – |
| ACGCAUUGCCUUUGGUAGUGCGUAACAUGAGGAUCACCCAUGUAGGAUAUGGUAGGCUUUGCUUACCAGAAGGACAUUAUAUUC [JL ENG3 1.03] (Eterna round: R96, puzzle: Exclusion NG 3) | 69.4 nM | 22.1 nM | 21.9 nM | – | – | – |
| ACGCCGCAAGGAUAUCGUAAAGCAGACAUGAGGAUCACCCAUGUGAUAUCAUAAAGGCCACGAGAAGGUGCACAAG [Quoredin] (puzzle: Exclusion 5) | – | – | – | 35.8 nM | 21.2 nM | 24.5 nM |
| ACGCUAUGAGGAUAUACAUGAGGAUCACCCAUGUCCCGAUGGUGUUUCCAUUGGAGACGUAGAAGGUAUGGUUA [Eternabot (L2) Solution 13] (Eterna round: R97, puzzle: Exclusion 3) | 169 nM | – | 172 nM | – | – | – |
| ACGUGAGCUGAGGAUAUGCCACUAGCCCGCCUGGCAGAAGGCAGUACAUGAGGAUCACCCAUGUGCGUUGGGUG [Leintice] (Eterna round: R97, puzzle: Exclusion 6) | 334 nM | – | 335 nM | – | – | – |
| ACGUUGUCAGGAUAUCGUUAAUUUAGUUGUUUGUAUUAGUUCGAGAAGGGACAUGAGGAUCACCCAUGUUUGCA [Ex4 #31] (Eterna round: R97, puzzle: Exclusion 4) | 32.7 nM | – | 26.3 nM | – | – | – |
| ACGUUUUUUGAGGAUAUGCGAUAUUUUUUUAUCGUAGAAGGCGAUACAUGAGGAUCACCCAUGUUUAUGGGCAU [LRO-Ex6-19] (puzzle: Exclusion 6) | – | – | – | – | 143 nM | – |
| ACUAGCGAAAUGCUCGUCUUAUUUUUGUAGAGGUUCUAAACAUGAGGAUCACCCAUGUAGUGGUUUUUGUGGAGGUA [JR_SV3TOV2_Sub071] (puzzle: Sensor v3, turn-off variant 2) | – | – | – | 222 nM | – | 349 nM |
| ACUAGCUUUUUGCAUAGUAGGUUUGGUGCUUCGUAUGCAACAUGAGGAUCACCCAUGUAUUACUGAUGUCGUCGUUU [JR_SV3TOV2_Sub092] (puzzle: Sensor v3, turn-off variant 2) | – | – | – | 26.2 nM | 48.2 nM | 27.8 nM |
| ACUAGCUUUUUGCAUAGUAGGUUUGGUGCUUCGUAUGCUACAUGAGGAUCACCCAUGUUUUACUGAUGUCGUCGUUU [JR_SV3TOV2_Sub094] (puzzle: Sensor v3, turn-off variant 2) | – | – | – | 32.7 nM | 52.9 nM | 32.3 nM |
| ACUAGUCUAAAGGAUAUGGACCUGAACAAAUGGCCAGAAGGUUAAACAUGAGGAUCACCCAUGUAGGUGCGCCA [Eternabot (Original) Solution 18] (Eterna round: R97, puzzle: Exclusion 6) | 31.2 nM | – | 27.2 nM | – | – | – |
| ACUGACAUGAGGAUCACCCAUGUAGAUGUGUUCGCAAGCCUCUAGGAUAUAUCUAACCUACCCGGAUAGAAGGAGAGGUUCCCU [Eternabot solution 9] (Eterna round: R96, puzzle: Exclusion NG 3) | 25.2 nM | 21.1 nM | 31.7 nM | – | – | – |
| ACUGGUCGAGGAUAUACAAUCGUGCUUCGGCACGUAAGAUCACAUGAGGAUCACCCAUGUAGAAGGUGACCAGU [E2/1-B2] (Eterna round: R97, puzzle: Exclusion 2) | 135 nM | – | 28.3 nM | – | – | – |
| ACUGGUCGAGGAUAUACAUGAGGAUCACCCAUGUAGAUCAACCAGCGAUAGCUGGAAUGUAGAAGGCGACCAGU [E3/5-A2] (Eterna round: R97, puzzle: Exclusion 3) | 191 nM | – | 24.6 nM | – | – | – |
| ACUUACUGAGGAUAUACAUAGAUUUACAUGAGGAUCACCCAUGUUCCUCUAAGUAUAUAUGUAGAAGGCAGAAGAG [Mat - Exclusion 5 - JL Mod - D40] (Eterna round: R97, puzzle: Exclusion 5) | 172 nM | – | 145 nM | – | – | – |
| ACUUUUUGAGGAUAUACAUUGAUUAACAUGAGGAUCACCCAUGUACAAACAUGUAUUUGUGUAGAAGGCAGAAGAA [JR_Ex5_Sub068] (Eterna round: R97, puzzle: Exclusion 5) | 14.9 nM | – | 13.2 nM | – | – | – |
| AGAAACUCAAGAGGAUAUCACAUGAGGAUCACCCAUGUAUAGCGCGCUAUGCUAGUCCUCGUAUUUGAGAAGGUUUGAAAUAAG [Mat - Exclusion NG 2 - Mod of JL - D79] (Eterna round: R96, puzzle: Exclusion NG 2) | 29.8 nM | 12.5 nM | 18.3 nM | – | – | – |
| AGAAAUGCCCAUGGCCGCAAGCCUUUUGCUUGUCUUACCACAUGAGGAUCACCCAUGUGACAUGGGCUCCUUAUAAU [Verileve] (puzzle: Sensor v3, turn-off variant 2) | – | – | – | 14 nM | 9.2 nM | 12.5 nM |
| AGAAGUAGAAACCGAUCCUACAUGAGGAUCACCCAUGUAGCAAGACGUGCACGCGAAGCUCGUCAGACUACCAGAAA [salish99_TOv1_r3_005] (puzzle: Sensor v3, turn-off variant 1) | – | – | – | 159 nM | 223 nM | 337 nM |
| AGAAGUAGAAACCGAUCCUACAUGAGGAUCACCCAUGUAGCAAGACGUGCACGCGAAGCUCGUCAGACUACCAGAAG [salish99_TOv1_r3_001] (puzzle: Sensor v3, turn-off variant 1) | – | – | – | 379 nM | 821 nM | 685 nM |

From the supplement of paper PMC9170038
